Values quoted from earlier work, collected in article PMC7788954.

Target: Sans SAM-PBM (Homo sapiens) (UniProt Q495M9)
Sequence (Q495M9 388-461): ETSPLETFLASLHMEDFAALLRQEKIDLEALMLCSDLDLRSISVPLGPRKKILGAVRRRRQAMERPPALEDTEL

Chain of harmonin N-terminal HHD-containing supramodule (Q9Y6N9 1-192): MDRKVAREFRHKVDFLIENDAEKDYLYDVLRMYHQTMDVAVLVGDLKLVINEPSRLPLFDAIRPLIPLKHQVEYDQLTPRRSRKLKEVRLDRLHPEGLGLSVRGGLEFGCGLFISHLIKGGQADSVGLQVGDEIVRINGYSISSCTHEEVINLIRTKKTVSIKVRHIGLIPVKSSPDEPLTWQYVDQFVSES

- Kd: 1 nM
Substance: harmonin N-terminal HHD-containing supramodule (from UniProt Q9Y6N9)
